Results taken from PMC9522936, “Regain flood adaptation in rice through a 14-3-3 protein OsGF14h” (Nature Communications, 2022).

B1: OsPYL5 promoter HD-ZIP3 probe (55 bp) (dsDNA)
DNA 1: AATATAAAACGGTGGGAGTATTAATGATTACATAGTCAATTTTATGTTTGCATTA
DNA 2: TAATGCAAACATAAAATTGACTATGTAATCATTAATACTCCCACCGTTTTATATT
B2: GST-OsHOX3 (natural protein, rice, UniProt Q0JKX1 1-229, looked up)
chain: MMGATSPSGLELTMAVPGLSSSGSEGAGCNNNNAGGGCNMRDLDINQPASGGEEEEFPMGSVEEDEEERGVGGPHRPKKLRLSKEQSRLLEESFRLNHTLTPKQKEALAIKLKLRPRQVEVWFQNRRARTKLKQTEMECEYLKRCFGSLTEENRRLQREVEELRAMRVAPPTVLSPHTRQPLPASALTMCPRCERITAATGPPAVRPPPSSAAAAAPSPFHPRRPSAAF
notes: HD-Zip family transcription factor OsHOX3, rice; source: E. coli Rosetta (DE3), purified (GST beads)

Experiments:
OsHOX3 = target: T1, OsHOX3 (Oryza sativa, UniProt Q9XH38 1-229); experiment: EMSA; without OsGF14h; Chemiluminescent EMSA Kit GS009 (Beyotime) per manufacturer; 6% native polyacrylamide gel; unlabeled competitor 10x and 20x; buffer, pH and temperature not stated; settings: protein: recombinant; tags: GST (pGEX4T-1; N-terminal); chain copies: 2; label: biotin 3' end; blunt
T1 sequence: B2 chain

His-OsGF14h^SN9816 = target: T2, His-OsGF14h^SN9816 (rice (Oryza sativa), japonica variety …, UniProt Q2R1D5 1-230); experiment: pull-down; GST-OsHOX3 or GST-OsVP1 as bait on GST beads, equal quantities of recombinant proteins in GST pull-down buffer at 4 °C overnight, His-OsGF14h detected by anti-His; settings: both partners purified
T2 construct: also called Hap1; source: E. coli Rosetta (DE3), purified (Ni NTA beads)
T2 sequence (looked up): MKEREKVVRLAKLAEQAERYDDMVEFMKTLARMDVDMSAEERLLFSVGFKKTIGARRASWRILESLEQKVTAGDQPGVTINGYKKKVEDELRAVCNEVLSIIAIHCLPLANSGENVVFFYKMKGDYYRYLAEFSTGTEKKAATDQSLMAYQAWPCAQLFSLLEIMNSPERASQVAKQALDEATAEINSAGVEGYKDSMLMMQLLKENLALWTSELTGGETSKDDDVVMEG

Binder	binding result (OsHOX3)	binding result (His-OsGF14h^SN9816)
B1	binds	–
B2	–	binds
